Among the targets are mPD-L1 Y56A mCherry (mouse, UniProt Q9EP73 19-290, Y56A); mPD-L1 K124A mCherry (mouse, UniProt Q9EP73 19-290, K124A); mPD-L1 D49R mCherry (mouse, UniProt Q9EP73 19-290, D49R); WT mPD-L1 mCherry (mouse, UniProt Q9EP73 19-290); mPD-L1 G120D mCherry (mouse, UniProt Q9EP73 19-290, G120D); mPD-L1 G119D mCherry (mouse, UniProt Q9EP73 19-290, G119D); mPD-L1 R125A mCherry (mouse, UniProt Q9EP73 19-290, R125A); D28R (Mus musculus); mPD-L1 D122A mCherry (mouse, UniProt Q9EP73 19-290, D122A); mPD-L1 Y123R mCherry (mouse, UniProt Q9EP73 19-290, Y123R).

Holding throughout (experiment): FACS
On the technique in general: Flow cytometry measures light scatter and fluorescence of single cells or particles in a stream.

Among the data in publication PMC7272049 (2020) are EC50 values, retold here.

As a reminder, the EC50 is the concentration giving half of the maximal effect. A high value points to weaker potency.

Chain of mPD-L1 R125A mCherry (Q9EP73 19-290 R125A): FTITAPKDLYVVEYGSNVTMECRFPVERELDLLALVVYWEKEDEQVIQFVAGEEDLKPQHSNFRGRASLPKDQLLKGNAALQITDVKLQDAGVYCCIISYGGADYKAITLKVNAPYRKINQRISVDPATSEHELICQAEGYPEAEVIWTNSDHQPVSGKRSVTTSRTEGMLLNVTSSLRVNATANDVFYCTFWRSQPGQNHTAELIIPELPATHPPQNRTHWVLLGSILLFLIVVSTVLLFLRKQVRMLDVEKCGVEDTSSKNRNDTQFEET
Chain of mPD-L1 K124A mCherry (Q9EP73 19-290 K124A): as the sequence (Q9EP73 19-290 R125A) above, with K106A, A107R counted along it
Chain of D28R (Mus musculus) (chain, as listed by the source D28R): as the sequence (Q9EP73 19-290 R125A) above, with D8R, A107R counted along it
Chain of mPD-L1 G119D mCherry (Q9EP73 19-290 G119D): as the sequence (Q9EP73 19-290 R125A) above, with G101D, A107R counted along it
Chain of mPD-L1 G120D mCherry (Q9EP73 19-290 G120D): as the sequence (Q9EP73 19-290 R125A) above, with G102D, A107R counted along it
Chain of mPD-L1 Y56A mCherry (Q9EP73 19-290 Y56A): as the sequence (Q9EP73 19-290 R125A) above, with Y38A, A107R counted along it
Chain of mPD-L1 D122A mCherry (Q9EP73 19-290 D122A): as the sequence (Q9EP73 19-290 R125A) above, with D104A, A107R counted along it
Chain of WT mPD-L1 mCherry (Q9EP73 19-290): as the sequence (Q9EP73 19-290 R125A) above, with A107R counted along it
Chain of mPD-L1 Y123R mCherry (Q9EP73 19-290 Y123R): as the sequence (Q9EP73 19-290 R125A) above, with Y105R, A107R counted along it
Chain of mPD-L1 D49R mCherry (Q9EP73 19-290 D49R): as the sequence (Q9EP73 19-290 R125A) above, with D31R, A107R counted along it

B1: mPD-1 mIgG2a (Fc fusion)
chain: LEVPNGPWRSLTFYPAWLTVSEGANATFTCSLSNWSEDLMLNWNRLSPSNQTEKQAAFCNGLSQPVQDARFQIIQLPNRHDFHMNILDTRRNDSGIYLCGAISLHPKAKIEESPGAELVVTERILETSTRYPSPSPKPEGRFQGM
With B1, the EC50 was 1.9 nM with mPD-L1 Y56A mCherry; 42.9 nM with mPD-L1 K124A mCherry; 1.8 nM with mPD-L1 D49R mCherry; 1.8 nM with WT mPD-L1 mCherry; 2.5 nM with mPD-L1 G120D mCherry; 2 nM with mPD-L1 G119D mCherry. In addition, the EC50 with mPD-L1 R125A mCherry was 38.8 nM.

B2: mPD-1 mIgG2a (Fc fusion)
chain: B1 chain
modifications: Cell-surface full-length mPD-L1 with a C-terminal mCherry (left out); limits are not given, so the mature chain 19-290 is used. The paper prints D28R, but residue 28 of Q9EP73 is Tyr. The only nearby Asp is D26, which lies at the PD-1 interface, so D28R is read as D26R. The paper's other PD-L1 numbers match the precursor numbering.
For the molecule B2, in the experiment with D28R, the EC50 came out at 2.6 nM.

B3: mB7-1 mIgG2a (Fc fusion)
chain: VDEQLSKSVKDKVLLPCRYNSPHEDESEDRIYWQKHDKVVLSVIAGKLKVWPEYKNRTLYDNTTYSLIILGLVLSDRGTYSCVVQKKERGTYEVKHLALVKLSIKADFSTPNITESGNPSADTKRITCFASGGFPKPRFSWLENGRELPGINTTISQDPESELYTISSQLDFNTTRNHTIKCLIKYGDAHVSEDFTWEKPPEDPPDSKN
Take B3: the EC50 stood at 68.2 nM with mPD-L1 D122A mCherry, 7.7 nM with mPD-L1 Y123R mCherry, 54.9 nM with mPD-L1 K124A mCherry and 20.2 nM with mPD-L1 R125A mCherry.

B4: mB7-1 mIgG2a (Fc fusion)
chain: B3 chain
modifications: Cell-surface full-length mPD-L1 with a C-terminal mCherry (left out); limits are not given, so the mature chain 19-290 is used. The paper prints D28R, but residue 28 of Q9EP73 is Tyr. The only nearby Asp is D26, which lies at the PD-1 interface, so D28R is read as D26R. The paper's other PD-L1 numbers match the precursor numbering.
Regarding B4, in the experiment with D28R, a half-maximal response (EC50) required 18.8 nM.
